# Measurements published in paper PMC3358930 (ACS synthetic biology, 2011).
# T1: D. melanogaster Par-6 PDZ domain (residues 156-255) (D. melanogaster, UniProt O97111 156-255)
# T1 sequence (looked up): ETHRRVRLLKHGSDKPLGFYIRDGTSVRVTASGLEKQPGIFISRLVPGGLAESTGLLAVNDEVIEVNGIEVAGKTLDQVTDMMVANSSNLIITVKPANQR
# T2: TMR-CGYPKHREMAVDSP (Drosophila)
# T2 peptide: Ac-C(TMR)GYPKHREMAVDSP-NH2
# Legend:
# [1] = target: T1, D. melanogaster Par-6 PDZ domain …; assay: fluorescence polarisation
# TMR-CGYPKHREMAVDSP = target: T2, TMR-CGYPKHREMAVDSP; assay: fluorescence polarisation
Kd [1],Kd (TMR-CGYPKHREMAVDSP),Binder
15 µM,,Ac-C(TMR)GYPKHREMAAD-NH2 [TMR-CGYPKHREMAAD]
,48 µM,"PDZ-PxxP-COOH synthetic regulatory system without decoy ([Par-6 156-255]-PPPALPPKHREMAAD) (other, D. melanogaster) ETHRRVRLLKHGSDKPLGFYIRDGTSVRVTASGLEKQPGIFISRLVPGGLAESTGLLAVNDEVIEVNGIEVAGKTLDQVTDMMVANSSNLIITVKPANQRLPPPALPPKHREMAAD"
